Positions count from the first letter of the chain named. Numbers in names are those of the source. Like-named read-outs stand apart in the source and are kept apart here. Each block holds one binder with its values, some of them ahead of it.
Experiments:
Assay in all cases: SPR Biacore T200; binder captured on protein A chip, target as analyte
[1] = biological target: T1, 6×Histidine-tagged human PD-L1 protein (hPDL1-His) (human, UniProt Q9NZQ7 19-238)
T1 construct: also called hPL1-His; His-tagged human PD-L1
Procedure: (§1) Binding affinities of the fusion proteins against human CTLA4 (hCTLA4-His) or human PD-L1 (hPDL1) were measured by surface plasmon resonance (SPR) using Biacore™ T200 biosensor equipped with pre-immobilized protein A sensor chips. A CTLA4 antibody CT4-4G12-IgG1 (CT4) was used as a control. ATOR1015-CD86 (CD86) and KN035-IgG1 (with D265A mutation in heavy chain constant domain) were also used as controls.

human CTLA4 (hCTLA4-His) = human CTLA4 (hCTLA4-His) (human, UniProt P16410 36-161, limits assumed)
Procedure: as §1

[2] = biological target: T1, 6×Histidine-tagged human PD-L1 protein …; remark: listed apart in the source
[3] = biological target: T1, 6×Histidine-tagged human PD-L1 protein …; remark: listed apart in the source

Sequence of human CTLA4 (hCTLA4-His) (P16410 36-161 limits assumed): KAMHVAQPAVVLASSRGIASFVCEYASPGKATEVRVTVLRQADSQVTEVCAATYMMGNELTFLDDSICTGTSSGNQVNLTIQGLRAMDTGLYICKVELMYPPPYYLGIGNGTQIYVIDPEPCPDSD
T1 sequence (Q9NZQ7 19-238 limits assumed): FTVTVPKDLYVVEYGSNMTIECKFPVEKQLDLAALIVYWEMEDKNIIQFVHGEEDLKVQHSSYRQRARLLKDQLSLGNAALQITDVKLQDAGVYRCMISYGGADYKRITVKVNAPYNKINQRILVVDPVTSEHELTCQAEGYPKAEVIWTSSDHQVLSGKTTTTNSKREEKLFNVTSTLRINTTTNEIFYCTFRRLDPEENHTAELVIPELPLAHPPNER

B1: CT4-KN035-3A-knob-IgG1 (bispecific antibody)
heavy 1: EVQLVESGGGLVQPGGSLRLSCAASGFTFSSYTMSWVRQAPGKGLEWVATISRGGGYTSYPDSVKGRFTISRDNSKNTLYLQMNSLRAEDTAVYYCAREDYGSSYVHWFAYWGQGTLVTVSAASTKGPSVFPLAPSSKSTSGGTAALGCLVKDYFPEPVTVSWNSGALTSGVHTFPAVLQSSGLYSLSSVVTVPSSSLGTQTYICNVNHKPSNTKVDKKVEPKSCDKTHTCPPCPAPELLGGPSVFLFPPKPKDTLMISRTPEVTCVVVDVSHEDPEVKFNWYVDGVEVHNAKTKPREEQYNSTYRVVSVLTVLHQDWLNGKEYKCKVSNKALPAPIEKTISKAKGQPREPQVCTLPPSREEGGGGSGGGGSQVQLVESGGGLVQPGGSLRLSCAASGFTFSRRCMAWFRQAPGKERERVAKLLTTSGSTYLADSVKGRFTISRDNSKNTVYLQMNSLRAEDTAVYYCAADSFEDPTCTLVTSSGAFQYWGQGTLVTVSSGGGGSGGGGSVSLWCLVKGFYPSDIAVEWESNGQPENNYKTTPPVLDSDGSFFLYSKLTVDKSRWQQGNVFSCSVMHEALHNHYTQKSLSLSPGK
heavy 2: not shown
light: DIQMTQSPSFLSASVGDRVTITCRAGENIYSYLAWYQQKPGKAPKLLIYNARTLAEGVPSRFSGSGSGTEFTLTISSLQPEDFATYYCQHHYGSPRTFGGGTKLEIKRTVAAPSVFIFPPSDEQLKSGTASVVCLLNNFYPREAKVQWKVDNALQSGNSQESVTEQDSKDSTYSLSSTLTLSKADYEKHKVYACEVTHQGLSSPVTKSFNRGEC
notes: IgG1 with knobs-in-holes; KN035 on the knob chain only
Kd [1]: 11.7 nM
koff [1]: 0.00231 s⁻¹
kon [1]: 197000 M⁻¹ s⁻¹

B3: ATOR1015-CD86 (ligand)
chain: APLKIQAYFNETADLPCQFANSQNLSLSELVVFWQDQENLVLNEVYLGKERFDSVDSKYMGRTSFDSDSWTLRLHNLQIKDKGRYQCIIHHKKPTGMINIHQMNSELSVLA
notes: Used as control captured on a protein A chip
Kd (human CTLA4 (hCTLA4-His)): 1.02 nM
koff (human CTLA4 (hCTLA4-His)): 0.000297 s⁻¹
kon (human CTLA4 (hCTLA4-His)): 291000 M⁻¹ s⁻¹

B4: 3F2-hIL7-3A (antibody)
heavy: QVQLQESGPGLVKPSETLSLTCTVSGYSITSGYNWHWIRQFPGNGLEWMGYIHHSSITNYNPSLKSRITISRDTSKNQFSLKLSSVTAADTATYYCAREGYDYDWFAYWGQGTLVTVSSASTKGPSVFPLAPSSKSTSGGTAALGCLVKDYFPEPVTVSWNSGALTSGVHTFPAVLQSSGLYSLSSVVTVPSSSLGTQTYICNVNHKPSNTKVDKKVEPKSCDKTHTCPPCPAPELLGGPSVFLFPPKPKDTLMISRTPEVTCVVVDVSHEDPEVKFNWYVDGVEVHNAKTKPREEQYNSTYRVVSVLTVLHQDWLNGKEYKCKVSNKALPAPIEKTISKAKGQPREPQVYTLPPSRDEGGGGSGGGGSDCDIEGKDGKQYESVLMVSIDQLLDSMKEIGSNCLNNEFNFFKRHICDANKEGMFLFRAARKLRQFLKMNSTGDFDLHLLKVSEGTTILLNCTGQVKGRKPAALGEAQPTKSLEENKSLKEQKKLNDLCFLKRLLQEIKTCWNKILMGTKEHGGGGSGGGGSVSLTCLVKGFYPSDIAVEWESNGQPENNYKTTPPVLDSDGSFFLYSKLTVDKSRWQQGNVFSCSVMHEALHNHYTQKSLSLSPGK
light: DIVLTQSPDFQSVTPKEKVTITCRASQSISNNLHWYQQKPDESPKLLIKYASQSISGIPSRFSGSGSGTDFTLTINSVEAEDFAMYFCQQSKSWPFTFGQGTRLEIKRTVAAPSVFIFPPSDEQLKSGTASVVCLLNNFYPREAKVQWKVDNALQSGNSQESVTEQDSKDSTYSLSSTLTLSKADYEKHKVYACEVTHQGLSSPVTKSFNRGEC
notes: IgG1
Kd [2]: 0.493 nM
koff [2]: 0.000879 s⁻¹
kon [2]: 1.78e+06 M⁻¹ s⁻¹

B5: 3F2-hIL21-3A-mIFNa4 (antibody, IgG1)
heavy: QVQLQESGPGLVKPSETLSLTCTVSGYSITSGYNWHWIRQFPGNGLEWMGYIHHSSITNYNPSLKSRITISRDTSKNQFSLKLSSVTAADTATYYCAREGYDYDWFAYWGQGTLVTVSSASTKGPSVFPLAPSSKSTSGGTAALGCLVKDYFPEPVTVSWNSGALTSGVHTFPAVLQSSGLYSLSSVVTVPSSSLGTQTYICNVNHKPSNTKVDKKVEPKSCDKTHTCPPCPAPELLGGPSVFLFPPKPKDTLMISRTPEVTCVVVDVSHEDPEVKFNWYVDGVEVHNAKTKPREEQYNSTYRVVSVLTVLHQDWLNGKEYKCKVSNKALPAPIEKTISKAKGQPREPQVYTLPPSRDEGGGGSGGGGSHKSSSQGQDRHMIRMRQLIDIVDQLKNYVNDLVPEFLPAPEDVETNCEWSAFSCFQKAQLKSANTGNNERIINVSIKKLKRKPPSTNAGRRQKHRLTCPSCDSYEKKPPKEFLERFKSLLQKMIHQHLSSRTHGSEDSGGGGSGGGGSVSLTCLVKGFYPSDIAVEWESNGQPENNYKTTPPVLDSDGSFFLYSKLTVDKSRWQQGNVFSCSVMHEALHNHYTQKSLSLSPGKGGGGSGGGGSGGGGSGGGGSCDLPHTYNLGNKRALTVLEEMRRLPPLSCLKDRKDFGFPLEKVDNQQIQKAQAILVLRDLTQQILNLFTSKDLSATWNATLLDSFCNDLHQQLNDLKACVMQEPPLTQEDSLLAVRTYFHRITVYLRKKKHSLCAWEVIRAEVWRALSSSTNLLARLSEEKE
light: B4 light
notes: IgG1
Kd [3]: 0.613 nM
koff [3]: 0.00072 s⁻¹
kon [3]: 1.17e+06 M⁻¹ s⁻¹

B6: 3F2-hIL7-3A-mIFNa4 (antibody, IgG1)
heavy: QVQLQESGPGLVKPSETLSLTCTVSGYSITSGYNWHWIRQFPGNGLEWMGYIHHSSITNYNPSLKSRITISRDTSKNQFSLKLSSVTAADTATYYCAREGYDYDWFAYWGQGTLVTVSSASTKGPSVFPLAPSSKSTSGGTAALGCLVKDYFPEPVTVSWNSGALTSGVHTFPAVLQSSGLYSLSSVVTVPSSSLGTQTYICNVNHKPSNTKVDKKVEPKSCDKTHTCPPCPAPELLGGPSVFLFPPKPKDTLMISRTPEVTCVVVDVSHEDPEVKFNWYVDGVEVHNAKTKPREEQYNSTYRVVSVLTVLHQDWLNGKEYKCKVSNKALPAPIEKTISKAKGQPREPQVYTLPPSRDEGGGGSGGGGSDCDIEGKDGKQYESVLMVSIDQLLDSMKEIGSNCLNNEFNFFKRHICDANKEGMFLFRAARKLRQFLKMNSTGDFDLHLLKVSEGTTILLNCTGQVKGRKPAALGEAQPTKSLEENKSLKEQKKLNDLCFLKRLLQEIKTCWNKILMGTKEHGGGGSGGGGSVSLTCLVKGFYPSDIAVEWESNGQPENNYKTTPPVLDSDGSFFLYSKLTVDKSRWQQGNVFSCSVMHEALHNHYTQKSLSLSPGKGGGGSGGGGSGGGGSGGGGSCDLPHTYNLGNKRALTVLEEMRRLPPLSCLKDRKDFGFPLEKVDNQQIQKAQAILVLRDLTQQILNLFTSKDLSATWNATLLDSFCNDLHQQLNDLKACVMQEPPLTQEDSLLAVRTYFHRITVYLRKKKHSLCAWEVIRAEVWRALSSSTNLLARLSEEKE
light: B4 light
notes: IgG1
Kd [2]: 0.685 nM
koff [2]: 0.000803 s⁻¹
kon [2]: 1.17e+06 M⁻¹ s⁻¹

B7: 3F2-hIL21-3A (antibody, IgG1)
heavy: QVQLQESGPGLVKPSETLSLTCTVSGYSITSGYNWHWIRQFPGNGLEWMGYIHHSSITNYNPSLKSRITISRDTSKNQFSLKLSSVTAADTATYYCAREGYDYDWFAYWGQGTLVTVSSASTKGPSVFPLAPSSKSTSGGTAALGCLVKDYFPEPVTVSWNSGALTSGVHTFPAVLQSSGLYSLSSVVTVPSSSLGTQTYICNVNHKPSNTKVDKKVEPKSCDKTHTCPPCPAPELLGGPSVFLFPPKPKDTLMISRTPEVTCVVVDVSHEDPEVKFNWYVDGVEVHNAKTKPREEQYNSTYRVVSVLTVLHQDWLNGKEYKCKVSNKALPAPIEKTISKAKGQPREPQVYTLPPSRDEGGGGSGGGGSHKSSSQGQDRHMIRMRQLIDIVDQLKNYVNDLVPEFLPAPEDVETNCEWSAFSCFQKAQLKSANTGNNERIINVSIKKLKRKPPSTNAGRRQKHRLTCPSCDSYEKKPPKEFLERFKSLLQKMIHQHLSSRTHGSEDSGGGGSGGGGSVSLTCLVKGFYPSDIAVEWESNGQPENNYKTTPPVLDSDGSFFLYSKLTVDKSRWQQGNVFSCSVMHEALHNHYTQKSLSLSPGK
light: B4 light
notes: IgG1
Kd [3]: 0.515 nM
koff [3]: 0.000613 s⁻¹
kon [3]: 1.19e+06 M⁻¹ s⁻¹

The remaining lines, values ahead:

Kd [1]: 20.4 nM
koff [1]: 0.0019 s⁻¹
kon [1]: 92700 M⁻¹ s⁻¹
B2: CT4-KN035-3A-hole-IgG1 (bispecific antibody)
heavy 1: B1 heavy 1 with C354Y, E361C, W514S, L516A, Y555V
heavy 2: not shown
light: B1 light
notes: IgG1 with knobs-in-holes; KN035 on the hole chain only; also called CT4-KN035-3A-kole

Kd (human CTLA4 (hCTLA4-His)): 1.74 nM
koff (human CTLA4 (hCTLA4-His)): 0.000693 s⁻¹
kon (human CTLA4 (hCTLA4-His)): 397000 M⁻¹ s⁻¹
B8: PDL1-CD86-3A-IgG1 (antibody)
heavy: EVQLLESGGGLVQPGGSLRLSCAASGFTFSSYIMMWVRQAPGKGLEWVSSIYPSGGITFYADTVKGRFTISRDNSKNTLYLQMNSLRAEDTAVYYCARIKLGTVTTVDYWGQGTLVTVSSASTKGPSVFPLAPSSKSTSGGTAALGCLVKDYFPEPVTVSWNSGALTSGVHTFPAVLQSSGLYSLSSVVTVPSSSLGTQTYICNVNHKPSNTKVDKKVEPKSCDKTHTCPPCPAPELLGGPSVFLFPPKPKDTLMISRTPEVTCVVVDVSHEDPEVKFNWYVDGVEVHNAKTKPREEQYNSTYRVVSVLTVLHQDWLNGKEYKCKVSNKALPAPIEKTISKAKGQPREPQVYTLPPSRDEGGGGSGGGGSAPLKIQAYFNETADLPCQFANSQNLSLSELVVFWQDQENLVLNEVYLGKERFDSVDSKYMGRTSFDSDSWTLRLHNLQIKDKGRYQCIIHHKKPTGMINIHQMNSELSVLAGGGGSGGGGSVSLTCLVKGFYPSDIAVEWESNGQPENNYKTTPPVLDSDGSFFLYSKLTVDKSRWQQGNVFSCSVMHEALHNHYTQKSLSLSPGK
light: QSALTQPASVSGSPGQSITISCTGTSSDVGGYNYVSWYQQHPGKAPKLMIYDVSNRPSGVSNRFSGSKSGNTASLTISGLQAEDEADYYCSSYTSSSTRVFGTGTKVTVLGQPKANPTVTLFPPSSEELQANKATLVCLISDFYPGAVTVAWKADGSPVKAGVETTKPSKQSNNKYAASSYLSLTPEQWKSHRSYSCQVTHEGSTVEKTVAPTECS
notes: IgG1

Kd (human CTLA4 (hCTLA4-His)): 1.88 nM
koff (human CTLA4 (hCTLA4-His)): 0.000684 s⁻¹
kon (human CTLA4 (hCTLA4-His)): 364000 M⁻¹ s⁻¹
B9: PDL1-CD86-3A-IgG4 (antibody)
chain 1: EVQLLESGGGLVQPGGSLRLSCAASGFTFSSYIMMWVRQAPGKGLEWVSSIYPSGGITFYADTVKGRFTISRDNSKNTLYLQMNSLRAEDTAVYYCARIKLGTVTTVDYWGQGTLVTVSSASTKGPSVFPLAPCSRSTSESTAALGCLVKDYFPEPVTVSWNSGALTSGVHTFPAVLQSSGLYSLSSVVTVPSSSLGTKTYTCNVDHKPSNTKVDKRVESKYGPPCPSCPAPEFLGGPSVFLFPPKPKDTLMISRTPEVTCVVVDVSQEDPEVQFNWYVDGVEVHNAKTKPREEQFNSTYRVVSVLTVLHQDWLNGKEYKCKVSNKGLPSSIEKTISKAKGQPREPQVYTLPPSQEEGGGGSGGGGSAPLKIQAYFNETADLPCQFANSQNLSLSELVVFWQDQENLVLNEVYLGKERFDSVDSKYMGRTSFDSDSWTLRLHNLQIKDKGRYQCIIHHKKPTGMINIHQMNSELSVLAGGGGSGGGGSVSLTCLVKGFYPSDIAVEWESNGQPENNYKTTPPVLDSDGSFFLYSRLTVDKSRWQEGNVFSCSVMHEALHNHYTQKSLSLSLGK
chain 2: B8 light

Kd [1]: 14.1 nM
koff [1]: 0.00687 s⁻¹
kon [1]: 487000 M⁻¹ s⁻¹
B10: PD1-KN035-3A-IgG1 (bispecific antibody)
heavy: EVQLVESGGGLVQPGGSLRLSCAASGFTFSSYSMSWVRQAPGKRLEWVAHISSGGSSTYYPDTVKGRFTISRDNSKNTLYLQMNSLRAEDTAMYYCTRQFYYGSSFWYFDVWGAGTTVTVSSASTKGPSVFPLAPSSKSTSGGTAALGCLVKDYFPEPVTVSWNSGALTSGVHTFPAVLQSSGLYSLSSVVTVPSSSLGTQTYICNVNHKPSNTKVDKKVEPKSCDKTHTCPPCPAPELLGGPSVFLFPPKPKDTLMISRTPEVTCVVVDVSHEDPEVKFNWYVDGVEVHNAKTKPREEQYNSTYRVVSVLTVLHQDWLNGKEYKCKVSNKALPAPIEKTISKAKGQPREPQVYTLPPSREEGGGGSGGGGSQVQLVESGGGLVQPGGSLRLSCAASGFTFSRRCMAWFRQAPGKERERVAKLLTTSGSTYLADSVKGRFTISRDNSKNTVYLQMNSLRAEDTAVYYCAADSFEDPTCTLVTSSGAFQYWGQGTLVTVSSGGGGSGGGGSVSLTCLVKGFYPSDIAVEWESNGQPENNYKTTPPVLDSDGSFFLYSKLTVDKSRWQQGNVFSCSVMHEALHNHYTQKSLSLSPGK
light: DNVLTQSPATLSVSPGERATLSCKASQSVDFDGDSYMNWYQQKPGQPPRLLIYAASNLESGIPARFSGSGSGTDFTLTISSVEPEDFATYYCQQSNEDPPTFGGGTKVEIKRTVAAPSVFIFPPSDEQLKSGTASVVCLLNNFYPREAKVQWKVDNALQSGNSQESVTEQDSKDSTYSLSSTLTLSKADYEKHKVYACEVTHQGLSSPVTKSFNRGEC
notes: IgG1

Kd [1]: 11.5 nM
koff [1]: 0.0204 s⁻¹
kon [1]: 1.78e+06 M⁻¹ s⁻¹
B11: KN035-IgG1 (D265A) (Fc fusion, not shown: a dimerising Fc or GST)
VHH: QVQLVESGGGLVQPGGSLRLSCAASGFTFSRRCMAWFRQAPGKERERVAKLLTTSGSTYLADSVKGRFTISRDNSKNTVYLQMNSLRAEDTAVYYCAADSFEDPTCTLVTSSGAFQYWGQGTLVTVSS
notes: Control; with D265A mutation in heavy chain constant domain; also called KN035-PDL1
